Laboratory results from IntAct's records for PubMed 19013460.

B1: Thiamine metabolism regulatory protein THI3 (Saccharomyces cerevisiae), Q07471 (parent)
chain: MNSSYTQRYALPKCIAISDYLFHRLNQLNIHTIFGLSGEFSMPLLDKLYNIPNLRWAGNSNELNAAYAADGYSRLKGLGCLITTFGVGELSAINGVAGSYAEHVGILHIVGMPPTSAQTKQLLLHHTLGNGDFTVFHRIASDVACYTTLIIDSELCADEVDKCIKKAWIEQRPVYMGMPVNQVNLPIESARLNTPLDLQLHKNDPDVEKEVISRILSFIYKSQNPAIIVDACTSRQNLIEETKELCNRLKFPVFVTPMGKGTVNETDPQFGGVFTGSISAPEVREVVDFADFIIVIGCMLSEFSTSTFHFQYKTKNCALLYSTSVKLKNATYPDLSIKLLLQKILANLDESKLSYQPSEQPSMMVPRPYPAGNVLLRQEWVWNEISHWFQPGDIIITETGASAFGVNQTRFPVNTLGISQALWGSVGYTMGACLGAEFAVQEINKDKFPATKHRVILFMGDGAFQLTVQELSTIVKWGLTPYIFVMNNQGYSVDRFLHHRSDASYYDIQPWNYLGLLRVFGCTNYETKKIITVGEFRSMISDPNFATNDKIRMIEIMLPPRDVPQALLDRWVVEKEQSKQVQEENENSSAVNTPTPEFQPLLKKNQVGY
partner: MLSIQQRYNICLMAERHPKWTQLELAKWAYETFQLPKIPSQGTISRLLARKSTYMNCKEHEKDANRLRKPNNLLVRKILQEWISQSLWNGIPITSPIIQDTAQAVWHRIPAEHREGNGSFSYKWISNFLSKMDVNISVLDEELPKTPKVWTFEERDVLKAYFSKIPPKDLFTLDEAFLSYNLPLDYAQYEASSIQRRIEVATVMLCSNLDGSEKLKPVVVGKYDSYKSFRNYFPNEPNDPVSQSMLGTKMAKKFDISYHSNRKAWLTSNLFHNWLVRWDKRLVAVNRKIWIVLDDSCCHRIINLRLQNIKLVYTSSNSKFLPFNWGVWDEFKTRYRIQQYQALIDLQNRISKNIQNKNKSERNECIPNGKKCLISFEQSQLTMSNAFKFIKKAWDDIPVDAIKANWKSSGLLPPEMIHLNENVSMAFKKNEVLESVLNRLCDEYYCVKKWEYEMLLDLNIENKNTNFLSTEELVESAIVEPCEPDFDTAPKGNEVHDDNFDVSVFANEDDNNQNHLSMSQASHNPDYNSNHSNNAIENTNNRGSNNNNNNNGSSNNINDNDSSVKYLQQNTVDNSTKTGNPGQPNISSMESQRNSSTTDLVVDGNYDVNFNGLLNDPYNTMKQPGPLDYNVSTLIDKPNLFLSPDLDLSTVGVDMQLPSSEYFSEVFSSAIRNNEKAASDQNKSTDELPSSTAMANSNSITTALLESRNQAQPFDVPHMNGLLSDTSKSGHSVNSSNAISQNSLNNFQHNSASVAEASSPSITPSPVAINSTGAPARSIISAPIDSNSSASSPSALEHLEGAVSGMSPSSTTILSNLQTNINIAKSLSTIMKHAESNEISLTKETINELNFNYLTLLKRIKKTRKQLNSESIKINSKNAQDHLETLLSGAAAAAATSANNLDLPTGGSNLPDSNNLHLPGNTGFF

Variants of: B1
Details: with pdc2_yeast PDC2, P32896

| effect of a mutation on the interaction | Variant |
| --- | --- |
| increasing interaction | N488D |
